Test results taken from the DeepSol protein solubility set.

assay: soluble on expression in E. coli; label from the status in PepcDB or PDB records

Sequence	soluble on expression in E. coli
MTQLPPAIFLMGPTAAGKTDLAIELTKVLPCELISVDSALVYRGMDIGTAKPSRELLAQFPHRLIDILDPAESYSAADFRTDALAAMADITARGKIPLLVGGTMLYYKALLEGLADMPAADPQVRAELEEEAARLGWQALHDQLAAVDPESAARIHPNDPQRLTRALEVYRVSGLTMTAHRQRQLAQSTEAGASGRSQLPYTVANLAIAPANRQVLHQRIAQRFTQMLEQGFIDEVVALRSRSDLHAGLPSIRAVGYRQVWDHLDGKLTSAEMQERGIIATRQLAKRQFTWLRSWADLQWLDSLDCDNLPRALKYLGTISILSLEHHHHHH	not soluble
MTQPDRGKDRAGRRTKRFLTPSEKYEIWLQLVRQEVTIAEAAEQQQVDRSTIMRIRTVAKEGALAALAASKPGVAAAQRDYEMEAAKAEIARLSEAVKQMAVKLTLVEGKGGWA	not soluble
MTQSDYIESSEHIKDTQIGYCKYGHGPNYILAICGAVGCYKKDWPLKLLSHFPPDQVTIVGIDPPGYGTSRPPERKQEVQRCMKDSEYCLGLMETLKLEPFTVMGWSEGARTTVHVAAKGKEKVNRMIVMAGATKVNHLGAMAFKGMRETNHWLAAGRQPYLDHYSPETLRTQWAALCDVVDQVHSFCGGRFPCDLVLPQVKCPTLVMNGGLDRFCGDPNVCFIPVLKSLAKVEIHAQGGHDFYLKYPKWFSGKVLEFLKSTEKK	not soluble
MTQTQPVTPTPPASFQTQHDPRTRLGATPLPGGAGTRFRLWTSTARTVAVRVNGTEHVMTSLGGGIYELELPVGPGARYLFVLDGVPTPDPYARFLPDGVHGEAEVVDFGTFDWTDADWHGIKLADCVFYEVHVGTFTPEGTYRAAAEKLPYLKELGVTAIQVMPLAAFDGQRGWGYDGAAFYAPYAPYGRPEDLMALVDAAHRLGLGVFLDVVYNHFGPSGNYLSSYAPSYFTDRFSSAWGMGLDYAEPHMRRYVTGNARMWLRDYHFDGLRLDATPYMTDDSETHILTELAQEIHELGGTHLLLAEDHRNLPDLVTVNHLDGIWTDDFHHETRVTLTGEQEGYYAGYRGGAEALAYTIRRGWRYEGQFWAVKGEEHERGHPSDALEAPNFVYCIQNHDQIGNRPLGERLHQSDGVTLHEYRGAAALLLTLPMTPLLFQGQEWAASTPFQFFSDHAGELGQAVSEGRKKEFGGFSGFSGEDVPDPQAEQTFLNSKLNWAEREGGEHARTLRLYRDLLRLRREDPVLHNRQRENLTTGHDGDVLWVRTVTGAGERVLLWNLGQDTRAVAEVKLPFTVPRRLLLHTEGREDLTLGAGEAVLVG	soluble
MTRAKQIILWASLSAMPLIAQASERSDDEIKALVYQAILERPEIILQAVEQLQQAEEAAQAASAHAALTENRDSLFNDPNAPVLGNPEGDVTVVEFFDYNCPYCRRAMAEVQGLVDADPNVRLVYREWPILGEGSDFAARAALAARQQGKYEAFHWALMGMSGKANETGVLRIAREVGLDTEQLQRDMEAPEVTAHIAQSMALAQKLGFNGTPSFVVEDALVPGFVEQSQLQDAVDRARKAAAK	not soluble
MTRGRVIQVMGPVVDVKFENGHLPAIYNALKIQHKARNENEVDIDLTLEVALHLGDDTVRTIAMASTDGLIRGMEVIDTGAPISVPVGQVTLGRVFNVLGEPIDLEGDIPADARRDPIHRPAPKFEELATEVEILETGIKVVDLLAPYIKGGKIGLFGGAGVGKTVLIQELIHNIAQEHGGISVFAGVGERTREGNDLYHEMKDSGVISKTAMVFGQMNEPPGARMRVALTGLTMAEYFRDEQGQDGLLFIDNIFRFTQAGSEVSALLGRMPSAIGYQPTLATEMGQLQERITSTAKGSITSIQAIYVPADDYTDPAPATTFSHLDATTNLERKLAEMGIYPAVDPLVSTSRALAPEIVGEEHYQVARKVQQTLERYKELQDIIAILGMDELSDEDKLVVHRARRIQFFLSQNFHVAEQFTGQPGSYVPVKETVRGFKEILEGKYDHLPEDRFRLVGRIEEVVEKAKAMGVEV	soluble
MTRILPCLFLVLLAAAPLLANPANPLNLKKHHGVFCDVCKALVEGGEKVGDDDLDAWLDVNIGTLCWTMLLPLHHECEEELKKVKKELKKDIENKDSPDKACKDVDLC	not soluble
MTRPDNEPARLRSVAENLAAEAAAFVRGRRAEVFGISRAGDGDGAVRAKSSPTDPVTVVDTDTERLLRDRLAQLRPGDPILGEEGGGPADVTATPSDRVTWVLDPIDGTVNFVYGIPAYAVSIGAQVGGITVAGAVADVAARTVYSAATGLGAHLTDERGRHVLRCTGVDELSMALLGTGFGYSVRCREKQAELLAHVVPLVRDVRRIGSAALDLCMVAAGRLDAYYEHGVQVWDCAAGALIAAEAGARVLLSTPRAGGAGLVVVAAAPGIADELLAALQRFNGLEPIPDALEHHHHHH	soluble
MTRQSQDGDATSTPAERAAAARAAAAEAARIAAEAAAAAEEAEKEARDAEAAENRAPAGVAASSGAAADIAAGYSSEGAALELGTVVLDGVVDSAARVRIPLATVNRHGLVAGATGTGKTKTLQGIAEQLSAAGVPVVMADMKGDLSGLSQPGEAGDKITTRASETGDGEWRPAASPVEFLSLGTEGLGIPVRATITAFGPILLAKVLGLNETQESTLGLIFHWADVQGLALLDLLDLRSVIAHLTSDEGKADLKGIGGVSPATAGVILRALVNLEADGGDTFFGEPELETEDLLRVIDGKGVITLFELGAQAARPALFTTFLMWVLADLFQTLPEEGDLDKPKLVFIFDEAHLLFADASKAFLQQVEQTVKLIRSKGVGVFFCTQLPTDVPNGVLSQLGARIQHALRAFTPDDQKALTKTVRTYPTTENYDLEKALTSLGIGEAIVTVLSERGAPTPVAWTRIRPPRSLMDTIGTDAITAAASSSPLSAKYGQTVDRESAYEKLTAKVAGAPAAEPGLDLPPLPDLPTPPPAQPEGPNMAEQILGNSAVKSFLRSAASAAGREISRSIFGTGKRRRR	not soluble
MTRRPDRKDVATVDELHASATKLVGLDDFGTDDDNYREALGVLLDAYQGEAGLTVLGSKMNRFFLRGALVARLLSQSAWKQYPEHVDVAIKRPIFVTGLVRTGTTALHRLLGADPAHQGLHMWLAEYPQPRPPRETWESNPLYRQLDADFTQHHAENPGYTGLHFMAAYELEECWQLLRQSLHSVSYEALAHVPSYADWLSRQDWTPSYCRHRRNLQLIGLNDAEKRWVLKNPSHLFALDALMATYPDALVVQTHRPVETIMASMCSLAQHTTEGWSTKFVGAQIGADAMDTWSRGLERFNAARAKYDSAQFYDVDYHDLIADPLGTVADIYRHFGLTLSDEARQAMTTVHAESQSGARAPKHSYSLADYGLTVEMVKERFAGL	soluble
MTSFSLIATAAMGLESVVAEEVRRLGYECQVENGKVTFEGDALAICRANLWLRTADRVKLKVGEFRATTFEELFEQTKALPWADYLPKDAEFPVIGKSVKSTLFSVSDCQAIVKKAVVESLKARYHLSWFPETGPLYRIEVALHKDIATLTIDTSGAGLHKRGYRARQGEAPLRETLAAALVLLTNWTPDRPFVDPFCGSGTIAIEAALIGQNIAPGFNRDFVSEQWPWIGESVWEEARQEAEQMARYDQPLDICGIDLDPHMVEIAKMNAAEAGLSDLISFREGRAEQFRTDAQYGVIVGNPPYGERLGEQREVEALYRAIGRAFAALDTWSVYILTAHRGFETHYGRPATKRRKLFNGFIETHYYQYWGPRPPREARS	not soluble
MTSIAISSGSFDPITLGHLDIIKRGAKVFDEVYVVVLNNSSKKPFFSVEERLDLIREATKDIPNVKVDSHSGLLVEYAKMRNANAILRGLRAVSDFEYEMQITSMNRKLDENIETFFIMTNNQYSFLSSSIVKEVARYGGSVVDLVPPVVERALKEKFQTPLK	not soluble
MTSISSEYKLPEKTNTVSTNNSSLGKDEFLKILMTQVQNQDPLNPIDDKEFISQMATFSSLEQMMNLNTTMTQFVENQDPFTTYVDWMGKEVSWTDGKSATDKTGTVSSVKHFKGNYYLVLDDGTEISPANVMSVGQSSKLEHHHHHH	soluble
MTSLEKARELLREFPVVDGHNDLPWALREQVRYDLDARDIAADQSAHLHTDLARLRSGGVGAQYWSVYVRSDLPGAVTATLEQIDCVRRLIDRHPGELRAALTAADMEAARAEGRIASLMGAEGGHSIDNSLATLRALYALGVRYMTLTHNDNNAWADSATDEPGVGGLSAFGREVVREMNREGMLVDLSHVAATTMRDALDTSTAPVIFSHSSSRAVCDHPRNIPDDVLERLSANGGMAMVTFVPKFVLQAAVDWTAEADDNMRAHGFHHLDSSPEAMKVHAAFEERVPRPVATVSTVADHLDHMREVAGVDHLGIGGDYDGTPFTPDGLGDVSGYPNLIAELLDRGWSQSDLAKLTWKNAVRVLDAAEDVSRGLRAARGPSNATIEQLDGTAAEQPEG	soluble
